Data as given in the supplement of paper PMC12636428.

Test system: Saccharomyces cerevisiae
Experiment: transcriptional activation domain activity (GFP:mCherry ratio, weighted mean of sorted bins, harmonized to initial dataset scale) (arbitrary fluorescence ratio units); higher = stronger transcriptional activation
Details: beta-estradiol 1 µM; induction time 4 h
Outline: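 The activation activity of each tile is the read-weighted mean of bin median fluorescence, averaged across its barcodes and mapped linearly onto the scale of the initial dataset. Tiles were fused to an estradiol-inducible synthetic transcription factor, barcoded, and integrated at URA3 in yeast diploids carrying a GFP reporter. Induction used 1 uM beta-estradiol in SC for 4 hours at 30 °C, after which cells were sorted into 8 GFP:mCherry bins, and any tile with fewer than 50 reads was dropped.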

Row | Sequence | transcriptional activation domain activity
1 | FLFFFFLLLFLLYSSLPLPPFLYPSLPLCRFSLFYYYLLLWFHFPCFSPFFLF | 57900
2 | FLGTAMYFLYGESVIYYFKHILLVDRILLPLATHHRFISFMLYIIGFVFFVFS | 51000
3 | FLHCEPPTLLRLLGFFLCLVFSLYFTLSFPFFGPMLLLIRFSLGLPLPLVLMG | 58300
4 | FLHLATLKEKMGNRFRAKQSDISPEINLVLLGVLTLTVRFNPTLVSYVTTLRT | 50600
5 | FLHLLKIIRPSFAFYFTILFWWCIQVQLLLQIIINRIRVIVPNRKLSRHIMWG | 66300
6 | FLHLLKYIRPSFAFYFTILFWWCIQVQLLLQIIINRIRVIVPDRRHSRHIMIA | 68800
7 | FLKIYLLNPLHMTRFTDLLHQGFILNRVFQPYESHLQYLLQWMCDYNLYGCAY | 39200
8 | FLLAIRVSNMDLLMIGIMLTLFVRNVIVSTDYIRRGRVRYKALFYVLLCKYYR | 49600
9 | FLLCTFFAIFAFLLCYLLAFFSFHVFLYDDSLFLFYYCMSAACTFFCCMFLEF | 39600
10 | FLLDIFLLLVPSFPFSYTPFLVTSLFLVLCDIDVFLRFIYVHIYLVTLICTFM | 30400
11 | FLLFLSFGGLGGGIYSLCFGHIFSSLFLLFVLFSTSFPYMGPQLHVVMMPTCT | 40500
12 | FLLGVFVCLVNLREWWMVDRGPRIMMGEFGKVLSVRMRFALTLHFREQVHVNH | 48800
13 | FLLLFFFFVYFHLSFSFLTFLLSPLFVFIFMFYFGSFIFLPLSLFLFSLLFFS | 66100
14 | FLLLMFQGLDIFTPVIRVLHFRICLLLLLLIILLAVPLLFSYIIFSRPFLSLV | 43900
15 | FLLSILFLLSFFYSFFSFSLFIFDRLCQFSHFVDLPSLHYLSLCVFLSILCLF | 37100
16 | FLLSTSFYFVFILFLFHFYIVLFLLPPPSLSFPLSLPYLSAFIVLTPTQLWPA | 77600
17 | FLLTLLCMEVVLHFDYCVAISKANPDWSKYTPIQLSLLSYFNLHILWLKLLIP | 63400
18 | FLLTVYHIELLRNKSGDCSFMLRYFMNQGVNNSSLSTCMEHVAEAVVSTFINE | 30600
19 | FLMLVCLEVIGRGLTNKVVLMPSGLYCIPNIIHPKGFQLALEIIFLVLFIPCP | 39600
20 | FLMVLCLFCIVYLFFSCFPFFAMSYVLLLLFCFYCILFYFSCPFCFVICNSVV | 54000
21 | FLNNAPDEDPNLNNQWSICDDFSEGRQVNDAFVGGSNIPHTLKGLQKSLRFMN | 50800
22 | FLNRYLGLLGNIPVILEFFGNFTEHMFVFAFCFWLAFTQLVVIALLIIRTYAL | 65900
23 | FLPCDPYFLVSFFIQFFLLGFPFCLPLLSFLLLLLSFFHLSLEVFSLLLGDFH | 59400
24 | FLQNSSDSVDIRLALLLTPLENTKGVSHVDQLNKPTHTVVVGIVHLCNPKSRA | 51600
25 | FLRGLVVLLWSLDSLHLAFIVHGLYYYLIQNYGNYFSLFKPVWSFVGQILVSS | 57300

Row | Sequence | transcriptional activation domain activity
26 | FLRLFCFAFIMLVGILPTQAYVVYADVKLSMPWHAYSWSNMHGPSWHTVNMVP | 51400
27 | FLRRVFQNHPEVMFKPGPFYMGDGIIGLGANWICICWTLFVCVLLSFPTILPV | 66700
28 | FLSCLLAMEIIQHYMYVVAIKDRKAWIGDSPFELSMIGLWNLVIVWLKLLLPW | 59900
29 | FLSCMPFVFLTVVCSTLCMYFAKVFPTNNPVFLPLLLLHTFIHILSVVSFGLL | 33300
30 | FLSGWPLVLGKFGFDPKFNSCWYLNQDDRLTLIWLWCTFYFWVVASVIYSLLV | 62300
31 | FLSLLVLVCWVPCFVIMEVYLKSLTFNSVPYPPIHCFTPEGSHILYLCWGLIA | 32200
32 | FLSTFFIIPLDVMCRKAVLCCNKHFLPFLMVSMGPRFHSPHFSLNTFCHRLFF | 47300
33 | FLSYFSGWLTVIAWQCLVASASYVSGTLLQGLLVLNYPTYVFERWQGTLLMYA | 57900
34 | FLTAIPAVPFAGGLSFNILLLFHHSLPFAGFLAHGFYRIIFPITLFFLPIFML | 52900
35 | FLVAFLLMCLHSPDKSTVAMLILGVFSLLLLLFWAASLSFDGQPSKYGWLLRH | 50200
36 | FLVCLLTMEFILHYMYVVAIQGAKAWHGDTPLELSMIGFWNLIVVWLKLLLPW | 18200
37 | FLVCSFHHSIFGFFFWLFFDFFSFLHWRLCVLFPFWFRSKSSFPSFFFIVIIS | 51300
38 | FLVLRYGALIGHVPLFYNVFADPCKTPHLIHILAFYHYIFVFVLTALTTVLLV | 49400
39 | FLVRLFVLPVTLCMLYRCSVSLDLSRLNGSARNEWFNYWNKALLLGMTLFSMR | 62500
40 | FLWGGRHGFVGFCIPLILLFFMLLSCISFCISILHFFFVLSFLLNFFCEFFLR | 36100
41 | FLWYMLFLPLIIPRLSCSWLRLLCVQSGIFGEPIFFRLWICSIIYVVGHCWVL | 31200
42 | FLYLLSRYLGLAVHITNTVFAILVGHYQVIPVHLCRIGLVYQGAVLFVMLGIL | 46900
43 | FLYTLHIYDGQEGYHFLFNSFGNGSEWLQWSDGEQWALLYAQNYTMIIWVWYM | 15000
44 | FMHLSRPEKLLVLKVFADLVDYARKSIDSCLSSPTVNWSFNNLLWNYCSMLLQ | 67000
45 | FMHYYRRDRRHLKFLVLLVLFLSTCHFGLYVLTIFRVFVTMHSVVIPSHQVPW | 63000
46 | FMNTNEINNNNNNNNNNKNNINNINNNNSNNFSATSFNLGTLDEFVNNGDLED | 11800
47 | FMSDVGILRWSKLGMPIQSLYQAIWLTFWCSFPFIRDWSWTAQVFFTLHLLSI | 43100
48 | FMVLFFITLFSFLVLIPFPWSFVSRYVYSSMFMFCIFFSAFLRFHLLLLSFCR | 54900
49 | FNEFYPSGWPPSYFIVILRMLFLVCGLFFLWSFFFVVFFFCGLLSLLFFILVV | 28500
50 | FNIVAFGIIILDFWGMIGIWTQKFGFHHVWEVWLYQVYYGLFVCPWYSYSQIM | 80200

Row | Sequence | transcriptional activation domain activity
51 | FNLNEILPLPASDFKLNTVTNLNEIDFTNIFTKSPHPHSGSTHPRQVFDQLDD | 51600
52 | FNLYLLSWLHLLSSKSSSLGNSSAWWIRPVEITMMSCYWYIFGYLLLWCTLPT | 38200
53 | FNNDGWDTSLPIDFDFDEFNTETTDFDDFLKLLGDNSPSKEQKSLSYSPTATG | 162000
54 | FPAHFLSLLLTPISFSPLPIFPCTYINFLPLLQYLLLGNFFFGCIIWRPMTFC | 59000
55 | FPCFFISLFPCLLSLSISLFPCLVISLSFFLISLFPFLFLFFPFLSFSLFPYF | 68500
56 | FPEMITILIFTWSHNPLPHLVWHNQQECGSSLSTRFLCIFAVILCIWFVKRVF | 59700
57 | FPFFLSSLFFFLPFFSFFPFFLSSLFLLLFFSFSSSSYQTFSLREQFFHLFFT | 43500
58 | FPFSLLVLLIFYVFSFVFVICYMGILGAQYVYFYFSYIFDCHPLPLLRRLSFF | 36900
59 | FPHNETLPALGQDGINEDNLNETIDNMLIFDFLDDGSENNQVKYSRIIPPDIR | 89000
60 | FPILLRFIFTHFRMLFSCQLFCLMGFRVECLDFDPGSFILFHLTFLWLPFVLF | 53300
61 | FPIRIYSYVKLKWHLFLFDYCYFASMLNLIYLWILPNSTLLFTICYCAAHGPL | 61800
62 | FPPLFVSPLRLRYPFCGILFNIDTLFFRFLLVHIWLPFFCTYLYPYLLPFHWA | 74200
63 | FPPPFPPPFPPPFLSSFPPPVPLPLTFPLPPFPFQFPFPFPHPLTFPLPFPFP | 17600
64 | FPRLTDMVCELEDYLRPLAEHARAADVELVEIAVVSVYVNILNFSWKARCVFV | 43600
65 | FPRLVGCIAASLEGLPSTRNGRTAYCVLRVVASYFLCLIRNLMFSDLPVVRCR | 68700
66 | FPSLRLPFCVCLWFRLFVFFFHIGSFVLLVRLFFFFFNFGLFFLFFFLFSFFS | 27500
67 | FPTLGFVVDRYFRVTNFVPETFWSIKVVHKKDSINVNFNWKRGHLFDRMTVTV | 71400
68 | FPTVLVYYLLFAIGRLCTIMLYAALETCLAFMNHFPLFAMMLRLKDPARLPGG | 61800
69 | FPYFPYFPYFPYFLYFLFSLFSLLSLLPLLLYFLHPFLFLTCFWFSKLACFLS | 51400
70 | FQAQGDDELTVVEGDALWIIEQEGDEWWKCRNIKGDEGVVCVVIPRPTGAGRL | 36300
71 | FQFPIDFTNDFSDGFSLDADIGQFMDPLLLTSFLPSPIPFDDGTELSSLELLH | 167000
72 | FQLWKSLNCAYSSVQVTSQGFSIGILFWTLLEYVLHRFLFHLDKLLPDHPIAL | 63900
73 | FQNISNTILDISLSHGKVPNMDQLTRELFGASDSYQDILDENNVDVSWVDKLV | 103000
74 | FQPAVATPTVSIGLIYLIIMAFFSFSFFLPIHMKYIQPQGHPPLHFWQLIIWR | 68900
